The text below walks through data of patent US20230220095A1 (ALETA BIOTHERAPEUTICS, published 2023).

Test [1] deals with T1, GPRC5D expressed on transfected HEK293 / 293T cells (UniProt Q9NZD1 1-345, limits assumed).
T1 construct: whole, on cells
Description: flow cytometry, titration of fusion protein supernatant on GPRC5D-transfected HEK293 cells, anti-His detection, % Binding. For orientation: Flow cytometry measures light scatter and fluorescence of single cells or particles in a stream.

The target in test [2] is T1, GPRC5D expressed on transfected HEK293 …. Description: flow cytometry, titration of fusion protein supernatant on GPRC5D-transfected HEK293 cells, anti-BCMA detection, % Binding.
Test [3] shares this target. Description: binding of HEK293 supernatants to GPRC5D-expressing HEK293 cells.
Test [4] deals with T2, CD38 on Daudi cells (human, UniProt P28907 1-300).
T2 construct: whole, on cells; Endogenous CD38 of Daudi cells
Description: flow cytometry, titration of fusion protein supernatant on Daudi cells (CD38), a-BCMA-PE detection, % Binding. Here is the method:
(§1) Daudi cells were obtained from ATCC and cultured in RPMI containing 10% FCS. They were stained for BCMA using anti-BCMA-PE labeled antibody (BioLegend, #357504) and for CD38 using anti-CD38-PE labeled antibody (BioLegend, #356604), or stained with BCMA-containing fusion proteins as described herein. The cells were incubated with antibody or supernatant from A493 or A494 producing cells as follows. The Daudi cells were blocked with human Fc block (BD Biosciences, #BDB564129) for 10 minutes, washed and then diluted to 5×10e5 cells per 50 µl. For each sample, 50 µl of cells was aliquoted per well. For the direct stains, 5 µl of antibody in 50 µl was incubated with the cells for 30 minutes at 4° C. After washing with FACS buffer (FB: PBS, 1% BSA, 0.1% sodium azide), the cells were fixed with a final concentration of 2% paraformaldehyde in FB. For the BCMA fusion protein binding, 50 µl of A493 or A494 supernatant or 3x serial dilution of the supernatant in FB, was added and incubated for 30 minutes at 4° C. The cells were washed 2 times with FB and then stained with anti-His-PE antibody (R&D systems, #ICO5OP) or anti-BCMA-PE antibody (BioLegend, #357504) for 30 minutes at 4° C., the cells were pelleted and washed 2 times in FB and then fixed as above. The samples were analyzed on a BD Accuri 6 flow cytometer and analyzed using BD Accuri 6 software.

Test [5] addresses T2, CD38 on Daudi cells. Description: flow cytometry, titration of fusion protein supernatant on Daudi cells (CD38), a-His-PE detection, % Binding. As for the experimental part:
as §1

One may read the EC50 as the concentration that produces a half-maximal response. Higher therefore signals lower potency in that assay.

Where “and” joins values, the source holds several entries; their conditions need not be identical. Equal entries are not always repeated.

T1 sequence (Q9NZD1 whole entry): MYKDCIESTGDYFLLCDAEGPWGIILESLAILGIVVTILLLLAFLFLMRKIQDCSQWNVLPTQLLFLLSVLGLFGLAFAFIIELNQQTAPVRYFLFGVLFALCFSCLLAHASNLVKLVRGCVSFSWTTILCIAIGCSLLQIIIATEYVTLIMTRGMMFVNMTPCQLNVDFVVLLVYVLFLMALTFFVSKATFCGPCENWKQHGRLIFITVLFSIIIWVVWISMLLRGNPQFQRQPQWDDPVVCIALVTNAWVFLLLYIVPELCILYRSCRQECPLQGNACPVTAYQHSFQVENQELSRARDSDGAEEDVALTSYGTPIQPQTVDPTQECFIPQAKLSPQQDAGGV

B1: anti-GPRC5D scFv-BCMA ECD-His fusion protein, construct 538 (other)
chain: SSELTQDPAVSVALGQTVRITCQGDSLRSYYASWYQQKPGQAPVLVIYGKNNRPSGIPDRFSGSSSGNTASLTITGAQAEDEADYYCNSRDSSGNPPVVFGGGTKLTVLGSRGGGGSGGGGSGGGGSLEMAQVQLVESGGGLVHPGGSLRLSCAASGFTFRSHSMNWVRQAPGKGLEWVSSISSDSTYTYYADSVKGRFTISRDNAKNSLYLQMNSLRAEDTAVYYCARSGGQWKYYDYWGQGTLVTVSSGGGGSGGGGSGGGGSMLQMAGQCSQNEYFDSLLHACIPCQLRCSSNTPPLTCQRYCNASVTNSVKGTNAHHHHHH
notes: scFv of construct 524 - G4Sx3 linker - BCMA ECD - His; also called A538; bridging protein #538
As to B1, the EC50 in test [1] is 0.00608 µg/mL and 0.182 nM; in test [2], 0.00225 µg/mL and 0.067 nM.

B2: anti-GPRC5D scFv, construct 525 (scFv)
scFv: QSVVTQPPSMSAAPGQQVTISCSGGNSNIERNYVSWYLQLPGTAPKLVIFDNDRRPSGIPDRFSGSKSGTSATLGITGLQTGDEADYYCGTWDSSLRGWVFGGGTKLTVLGSRGGGGSGGGGSGGGGSLEMAEVQLVESGGGLIQPGGSLRLSCAASGFTFSNYAMNWVRQAPGKGLEWVSTINGRGSSTIYADSVKGRFTISRDNSKNTLYLQMNSLRAEDTATYYCARYISRGLGDSWGQGTLVTVSSHHHHHH
notes: VL-G4Sx3-VH-His; Tested as HEK293 supernatant; also called A525
Take B2: the binding result in test [3] is listed as “binds”.

B3: anti-GPRC5D scFv-BCMA ECD-His fusion protein, construct 537 (other)
chain: QSVLTQPPSASGTPGQRVTISCSGSRSNVGGNYVFWYQQVPGATPKLLIYRSNQRPSGVPDRFAGSKSGSSASLAISGLRSEDEADYYCATWDDSLSGFVFGTGTKVTVLGSRGGGGSGGGGSGGGGSLEMAEVQLVESGGGLVKPGGSLRLSCAASGFTFSDYYMSWIRQAPGKGLEWVSYISSSGSTIYYADSVKGRFTISRDNAKNSLYLQMNSLRAEDTAVYYCARGYGKAYDQWGQGTLVTVSSGGGGSGGSMLQMAGQCSQNEYFDSLLHACIPCQLRCSSNTPPLTCQRYCNASVTNSVKGTNAHHHHHH
notes: scFv of construct 523 - linker - BCMA ECD - His; Tested as HEK supernatant; also called A537; anti-GPRC5D-BCMA fusion protein
As for B3, the half-maximal effective concentration (EC50) in test [1] is 0.0156 µg/mL and 0.469 nM; in test [2], 0.00553 µg/mL and 0.166 nM.

B4: anti-GPRC5D scFv, construct 524 (scFv)
scFv: SSELTQDPAVSVALGQTVRITCQGDSLRSYYASWYQQKPGQAPVLVIYGKNNRPSGIPDRFSGSSSGNTASLTITGAQAEDEADYYCNSRDSSGNPPVVFGGGTKLTVLGSRGGGGSGGGGSGGGGSLEMAQVQLVESGGGLVHPGGSLRLSCAASGFTFRSHSMNWVRQAPGKGLEWVSSISSDSTYTYYADSVKGRFTISRDNAKNSLYLQMNSLRAEDTAVYYCARSGGQWKYYDYWGQGTLVTVSSHHHHHH
notes: VL-G4Sx3-VH-His; Tested as HEK293 supernatant; also called A524
Take B4: the binding result in test [3] is “binds”.

B5: anti-GPRC5D scFv-BCMA ECD-His fusion protein, construct 539 (other)
chain: QSVVTQPPSMSAAPGQQVTISCSGGNSNIERNYVSWYLQLPGTAPKLVIFDNDRRPSGIPDRFSGSKSGTSATLGITGLQTGDEADYYCGTWDSSLRGWVFGGGTKLTVLGSRGGGGSGGGGSGGGGSLEMAEVQLVESGGGLIQPGGSLRLSCAASGFTFSNYAMNWVRQAPGKGLEWVSTINGRGSSTIYADSVKGRFTISRDNSKNTLYLQMNSLRAEDTATYYCARYISRGLGDSWGQGTLVTVSSGGGGSGGGGSGGGGSMLQMAGQCSQNEYFDSLLHACIPCQLRCSSNTPPLTCQRYCNASVTNSVKGTNAHHHHHH
notes: scFv of construct 525 - G4Sx3 linker - BCMA ECD - His; Tested as HEK supernatant; also called A539; anti-GPRC5D-BCMA fusion protein
Regarding B5, the concentration for a half-maximal effect (EC50) in test [1] is 0.0193 µg/mL and 0.572 nM; in test [2], 0.00669 µg/mL and 0.198 nM.

B6: anti-GPRC5D scFv, construct 522 (scFv)
scFv: QSVLTQPASVSGSPGQSLTISCTGTSNDVGAYKYVSWYQQYPGKAPKLILYDVFKRPSGVSNRFSGSKSDNTASLTISGLQAEDEADYYCFSLTSSNTYVFGTGTKVTVLGSRGGGGSGGGGSGGGGSLEMAQMQLVQSGAEVKKPGASVKVSCKASGYTFNRYAITWVRQAPGQGLEWMGWISAYNGNSHYAQKLQGRVTMTTDTSTGTAYMELRRLRSDDTAVYYCARMAYDSWGQGTLVTVSSHHHHHH
notes: VL-G4Sx3-VH-His; Tested as HEK293 supernatant; also called A522
As to B6, the binding result in test [3] is listed as “binds”.

B7: BCMA-anti-CD38 fusion protein, construct #493 (BCMA ECD N-terminal to the anti-CD38 scFv, C-terminal His tag) (other)
chain: MLQMAGQCSQNEYFDSLLHACIPCQLRCSSNTPPLTCQRYCNASVTNSVKGTNAGGGGSGGGGSGGGGSGGGGSDIQMTQSPSSLSASVGDRVTITCRASQGIRSWLAWYQQKPEKAPKSLIYAASSLQSGVPSRFSGSGSGTDFTLTISSLQPEDFATYYCQQYNSYPLTFGGGTKVEIKGGGGSGGGGSGGGGSGGGGSQVQLVQSGAEVKKPGSSVKVSCKAFGGTFSSYAISWVRQAPGQGLEWMGRIIRFLGIANYAQKFQGRVTLIADKSTNTAYMELSSLRSEDTAVYYCAGEPGERDPDAVDIWGQGTMVTVSSHHHHHH
notes: also called A493; N-terminal construct
Take B7: the concentration giving a half-maximal response (EC50) is 0.0056 µg/mL and 0.165 nM with CD38 on Daudi cells [4]; 0.00218 µg/mL and 0.0642 nM with CD38 on Daudi cells [5].

B8: anti-GPRC5D scFv-BCMA ECD-His fusion protein, construct 536 (other)
chain: QSVLTQPASVSGSPGQSLTISCTGTSNDVGAYKYVSWYQQYPGKAPKLILYDVFKRPSGVSNRFSGSKSDNTASLTISGLQAEDEADYYCFSLTSSNTYVFGTGTKVTVLGSRGGGGSGGGGSGGGGSLEMAQMQLVQSGAEVKKPGASVKVSCKASGYTFNRYAITWVRQAPGQGLEWMGWISAYNGNSHYAQKLQGRVTMTTDTSTGTAYMELRRLRSDDTAVYYCARMAYDSWGQGTLVTVSSGGGGSGGGGSMLQMAGQCSQNEYFDSLLHACIPCQLRCSSNTPPLTCQRYCNASVTNSVKGTNAHHHHHH
notes: scFv of construct 522 - linker - BCMA ECD - His; Tested as HEK supernatant; also called A536; anti-GPRC5D-BCMA fusion protein
For the molecule B8, the EC50 in test [1] was 0.86 nM and 0.0287 µg/mL; in test [2], 0.00509 µg/mL and 0.152 nM.

B9: anti-GPRC5D scFv, construct 523 (scFv)
scFv: QSVLTQPPSASGTPGQRVTISCSGSRSNVGGNYVFWYQQVPGATPKLLIYRSNQRPSGVPDRFAGSKSGSSASLAISGLRSEDEADYYCATWDDSLSGFVFGTGTKVTVLGSRGGGGSGGGGSGGGGSLEMAEVQLVESGGGLVKPGGSLRLSCAASGFTFSDYYMSWIRQAPGKGLEWVSYISSSGSTIYYADSVKGRFTISRDNAKNSLYLQMNSLRAEDTAVYYCARGYGKAYDQWGQGTLVTVSSHHHHHH
notes: VL-G4Sx3-VH-His; Tested as HEK293 supernatant; also called A523
In the case of B9, the binding result in test [3] was “binds”.

B10: BCMA-anti-CD38 fusion protein, construct #494 (BCMA ECD C-terminal to the anti-CD38 scFv, C-terminal His tag) (other)
chain: DIQMTQSPSSLSASVGDRVTITCRASQGIRSWLAWYQQKPEKAPKSLIYAASSLQSGVPSRFSGSGSGTDFTLTISSLQPEDFATYYCQQYNSYPLTFGGGTKVEIKGGGGSGGGGSGGGGSGGGGSQVQLVQSGAEVKKPGSSVKVSCKAFGGTFSSYAISWVRQAPGQGLEWMGRIIRFLGIANYAQKFQGRVTLIADKSTNTAYMELSSLRSEDTAVYYCAGEPGERDPDAVDIWGQGTMVTVSSGGGGSGGGGSGGGGSGGGGSMLQMAGQCSQNEYFDSLLHACIPCQLRCSSNTPPLTCQRYCNASVTNSVKGTNAHHHHHH
notes: also called A494
As to B10, the 50% effective concentration (EC50) is 0.0123 µg/mL and 0.364 nM in the test with CD38 on Daudi cells [4]; 0.00315 µg/mL and 0.093 nM in the test with CD38 on Daudi cells [5].
